Paper PMC8028696 (Journal of Molecular Biology, 2021)

What was measured:
[1] = target: T1, Trimeric SARS-CoV-2 S-protein (SARS-CoV-2 (P0DTC2 reference)); strain …, UniProt P0DTC2, biotin (site-specific, BirA, on the AviTag)); assay: BLI
[2] = target: T1, Trimeric SARS-CoV-2 S-protein; assay: ELISA

Binder | Kd [1] | EC50 [2]
IgG 15036 (antibody, V domains shown) VH: EVQLVESGGGLVQPGGSLRLSCAASGFDFTAYDIHWVRQAPGKGLEWVAGISASGGYTAYADSVKGRFTISADTSKNTAYLQMNSLRAEDTAVYYCARDGFHSYALDYWGQGTLVTVSS VL: DIQMTQSPSSLSASVGDRVTITCRASQSVSSAVAWYQQKPGKAPKLLIYSASSLYSGVPSRFSGSRSGTDFTLTISSLQPEDFATYYCQQWYSLFTFGQGTKVEIK | 0.1 ± 0.1 nM | 0.5 ± 0.1 nM
IgG 15046 (antibody, V domains shown) VH: EVQLVESGGGLVQPGGSLRLSCAASGFDFGSYAMHWVRQAPGKGLEWVAGIYASGGYTDYADSVKGRFTISADTSKNTAYLQMNSLRAEDTAVYYCARGWSYYWGFDYWGQGTLVTVSS VL: DIQMTQSPSSLSASVGDRVTITCRASQSVSSAVAWYQQKPGKAPKLLIYSASSLYSGVPSRFSGSRSGTDFTLTISSLQPEDFATYYCQQYDYGLFTFGQGTKVEIK | 2.3 ± 0.6 nM | 1.3 ± 0.3 nM
